{"source": "patent US20240402174A1", "about": "(Takeda / Millennium, published 2024)", "binders": {"B1": {"name": "human mAb 1227 (antibody, V domains shown)", "VH": "QVQLVQSGGGMVQPGGSLSLSCAASGFTLSNYAMTWVRQAPGKGLEWVSSIGGSGGTTYYADSVKGRFTISRDSSMNTLYLQMSNLRAGDTAVYYCAKDKTRTLRLGYSGMDVWGQGTTVTVSS", "VL": "DIRLTQSPSSLSASVGDRVTITCRASQSISSYLNWYQQKPGKAPDLLIYGASSLQSGVPSRFSGSGSGTDFTLTISSLQPEDFGNYYCQQSFSTPRTFGQGTKVEL", "notes": "also called A1227"}}, "test_in_all_cases": "multiplex microsphere immunoassay", "key": {"[1]": {"target": "T1, GI.7 VLP (norovirus Hu/GI.7/Providence191/2010/USA)", "T1 construct": "also called GI.7 Providence", "T1 chain": "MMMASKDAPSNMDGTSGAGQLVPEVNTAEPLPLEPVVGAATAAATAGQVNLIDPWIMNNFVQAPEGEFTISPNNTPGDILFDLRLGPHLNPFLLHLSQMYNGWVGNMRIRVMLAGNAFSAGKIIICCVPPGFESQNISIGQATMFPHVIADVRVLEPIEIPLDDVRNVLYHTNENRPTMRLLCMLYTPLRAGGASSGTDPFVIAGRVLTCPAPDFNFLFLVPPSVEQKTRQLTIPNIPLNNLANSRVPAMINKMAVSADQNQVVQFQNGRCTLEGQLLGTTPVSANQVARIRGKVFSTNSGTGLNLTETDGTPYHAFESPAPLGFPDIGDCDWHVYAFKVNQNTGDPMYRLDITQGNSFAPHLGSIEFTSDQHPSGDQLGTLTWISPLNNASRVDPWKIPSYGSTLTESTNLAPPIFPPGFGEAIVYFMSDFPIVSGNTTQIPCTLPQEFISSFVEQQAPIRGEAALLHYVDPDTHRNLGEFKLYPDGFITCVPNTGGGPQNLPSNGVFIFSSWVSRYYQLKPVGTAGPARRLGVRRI"}, "[2]": {"target": "T2, GI.5 VLP (norovirus …)", "T2 construct": "also called GI.5 Siklos", "T2 chain": "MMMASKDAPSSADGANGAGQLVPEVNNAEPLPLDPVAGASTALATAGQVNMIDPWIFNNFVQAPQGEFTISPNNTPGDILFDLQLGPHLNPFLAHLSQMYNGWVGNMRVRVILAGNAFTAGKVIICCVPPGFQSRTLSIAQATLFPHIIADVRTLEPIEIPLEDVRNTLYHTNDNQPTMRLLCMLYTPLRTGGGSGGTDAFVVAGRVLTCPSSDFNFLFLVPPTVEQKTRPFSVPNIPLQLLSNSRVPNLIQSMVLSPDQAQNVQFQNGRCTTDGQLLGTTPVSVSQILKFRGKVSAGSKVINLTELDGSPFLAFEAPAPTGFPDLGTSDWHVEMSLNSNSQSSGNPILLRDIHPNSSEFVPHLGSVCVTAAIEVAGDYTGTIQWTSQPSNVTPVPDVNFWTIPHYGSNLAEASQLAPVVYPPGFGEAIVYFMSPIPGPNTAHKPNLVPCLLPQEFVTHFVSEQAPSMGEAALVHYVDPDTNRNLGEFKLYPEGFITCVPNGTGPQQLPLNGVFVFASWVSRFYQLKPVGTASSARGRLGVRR"}, "[3]": {"target": "T3, GI.3 VLP (norovirus Hu/GI.3/JKPG_883/SWE/2007)", "T3 construct": "also called GI.3 Sweden", "T3 chain": "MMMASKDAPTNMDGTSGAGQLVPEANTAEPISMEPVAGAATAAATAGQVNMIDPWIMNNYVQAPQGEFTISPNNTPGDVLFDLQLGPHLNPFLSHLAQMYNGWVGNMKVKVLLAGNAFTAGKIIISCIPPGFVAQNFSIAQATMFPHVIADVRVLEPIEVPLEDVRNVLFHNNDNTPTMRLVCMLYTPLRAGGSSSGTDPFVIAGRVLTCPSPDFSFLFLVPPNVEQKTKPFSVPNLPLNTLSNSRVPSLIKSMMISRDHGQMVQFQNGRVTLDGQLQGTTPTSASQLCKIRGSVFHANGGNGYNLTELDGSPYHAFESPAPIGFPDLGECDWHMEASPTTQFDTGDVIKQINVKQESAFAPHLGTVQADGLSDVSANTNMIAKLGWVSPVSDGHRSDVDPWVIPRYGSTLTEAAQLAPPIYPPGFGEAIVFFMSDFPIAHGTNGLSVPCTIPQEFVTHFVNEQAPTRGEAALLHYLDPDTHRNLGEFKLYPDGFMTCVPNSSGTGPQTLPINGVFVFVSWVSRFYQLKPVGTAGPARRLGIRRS"}, "[4]": {"target": "T4, GI.2 VLP (norovirus Hu/GI.2/Jingzhou/2013401/CHN, UniProt Q04542 1-546)", "T4 construct": "also called GI.2 Jingzhou", "T4 chain": "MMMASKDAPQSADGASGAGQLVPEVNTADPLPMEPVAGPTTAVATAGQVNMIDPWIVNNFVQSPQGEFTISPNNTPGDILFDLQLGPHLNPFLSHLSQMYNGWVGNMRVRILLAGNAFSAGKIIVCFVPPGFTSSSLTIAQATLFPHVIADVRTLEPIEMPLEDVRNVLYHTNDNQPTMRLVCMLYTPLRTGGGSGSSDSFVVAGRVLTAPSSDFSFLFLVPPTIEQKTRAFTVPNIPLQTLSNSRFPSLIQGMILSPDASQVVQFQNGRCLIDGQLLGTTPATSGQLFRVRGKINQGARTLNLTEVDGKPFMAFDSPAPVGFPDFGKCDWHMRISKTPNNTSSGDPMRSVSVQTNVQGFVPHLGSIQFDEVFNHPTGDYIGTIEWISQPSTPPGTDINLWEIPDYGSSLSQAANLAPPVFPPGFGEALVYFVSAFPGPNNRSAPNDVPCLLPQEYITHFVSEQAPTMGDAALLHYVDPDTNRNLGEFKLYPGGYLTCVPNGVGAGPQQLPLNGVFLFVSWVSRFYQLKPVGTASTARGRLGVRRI"}, "[5]": {"target": "T5, GI.6 VLP (norovirus Hu/GI.6/TCH-099/USA/2003)", "T5 construct": "also called GI.6 USA", "T5 chain": "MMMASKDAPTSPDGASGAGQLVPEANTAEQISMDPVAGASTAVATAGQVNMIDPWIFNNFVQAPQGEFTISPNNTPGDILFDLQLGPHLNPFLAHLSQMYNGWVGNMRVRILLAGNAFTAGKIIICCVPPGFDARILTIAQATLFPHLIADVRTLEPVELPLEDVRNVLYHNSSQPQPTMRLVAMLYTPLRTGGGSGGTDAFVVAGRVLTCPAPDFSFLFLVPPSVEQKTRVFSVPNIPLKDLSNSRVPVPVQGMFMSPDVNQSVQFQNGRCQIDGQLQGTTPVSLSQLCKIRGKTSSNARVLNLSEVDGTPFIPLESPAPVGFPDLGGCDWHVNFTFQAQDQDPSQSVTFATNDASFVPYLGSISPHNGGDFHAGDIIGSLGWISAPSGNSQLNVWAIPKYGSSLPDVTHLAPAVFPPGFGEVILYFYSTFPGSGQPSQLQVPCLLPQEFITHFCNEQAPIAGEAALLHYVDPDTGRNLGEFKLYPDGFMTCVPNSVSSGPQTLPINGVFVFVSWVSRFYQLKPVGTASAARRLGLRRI"}, "[6]": {"target": "T6, GI.4 VLP (norovirus Hu/GI.4/1643/2008/US)", "T6 construct": "also called GI.4 US", "T6 chain": "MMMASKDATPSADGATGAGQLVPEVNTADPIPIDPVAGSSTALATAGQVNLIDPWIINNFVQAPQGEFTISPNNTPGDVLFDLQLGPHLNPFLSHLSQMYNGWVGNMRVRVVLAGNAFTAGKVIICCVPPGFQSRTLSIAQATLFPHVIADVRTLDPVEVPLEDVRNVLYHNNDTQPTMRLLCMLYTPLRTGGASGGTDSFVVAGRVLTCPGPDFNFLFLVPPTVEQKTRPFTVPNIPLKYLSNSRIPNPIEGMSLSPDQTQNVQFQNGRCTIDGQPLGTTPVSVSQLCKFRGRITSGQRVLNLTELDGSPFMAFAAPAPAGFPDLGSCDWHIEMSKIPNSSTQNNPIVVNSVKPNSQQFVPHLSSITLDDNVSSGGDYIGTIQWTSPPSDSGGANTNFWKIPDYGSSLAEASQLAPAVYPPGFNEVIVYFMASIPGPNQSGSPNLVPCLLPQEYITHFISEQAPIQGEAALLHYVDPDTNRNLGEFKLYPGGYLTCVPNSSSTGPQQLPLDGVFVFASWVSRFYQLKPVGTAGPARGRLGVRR"}}}
{"binder": "B1", "values": [{"measurement": "EC50", "setting": "[1]", "value": 21, "unit": "ng/mL"}, {"measurement": "EC50", "setting": "[2]", "value": 1, "unit": "ng/mL"}, {"measurement": "EC50", "setting": "[3]", "value": 2, "unit": "ng/mL"}, {"measurement": "EC50", "setting": "[4]", "value": 2, "unit": "ng/mL"}, {"measurement": "EC50", "setting": "[5]", "value": 2, "unit": "ng/mL"}, {"measurement": "EC50", "setting": "[6]", "value": 2, "unit": "ng/mL"}]}
